Patent US20100323957A1, “NOVEL ASSAY FOR INHIBITORS OF EGFR” (THE REGENTS OF THE UNIVERSITY OF CALIFORNIA THE OFFICE OF …, priority 2007, published 2010)

Key:
gastric cancer cells = conditions: cited from earlier work
[1] = tested on: cancer cells in colon cancer; conditions: in vitro; cited from earlier work
biliary tract cancer = conditions: in vitro; cited from earlier work
[2] = biological target: T1, EGFR kinase domain V924R mutant (Homo sapiens, UniProt P00533, V948R); assay: Fluorescence anisotropy binding titration, V924R mutant kinase domain; conditions: result in words
T1 construct: DNA encoding residues 672-998 of human EGFR was cloned into pFAST BAC HT; 6-His tag, linker and TEV cleavage site (N, cleaved yes); made in house; host or cells: Sf9 insect cells (baculovirus)
Excerpt: (§1) The wild-type and mutant forms of the EGFR kinase domain were expressed and purified using methods known in the art and described in Zhang et al., (2006). The 60-residue MIG6 peptide was expressed in bacteria as a glutathione S-transferase (GST)-fusion protein, purified and treated with the TEV protease to remove the GST-moiety. The wild-type and Y358A mutant MIG6(segments 1-2) peptides were fused to a Trp DLE leader peptide and expressed as inclusion bodies and purified as described. All other MIG6 peptides were produced using solid phase synthesis. […] The binding affinities between the kinase domain and fluorescein-labeled MIG6 peptides were measured by monitoring the change of fluorescence anisotropy during the titration and fitting the data to a single-site binding model. Kinase assays in solution and on vesicle were performed using methods known in the art and described herein. Cell-based inhibition assays were performed using Cos-7 cells co-transfected with constructs containing full-length EGFR and MIG6.
(§2) Fluorescein-labelled 30-residue wild-type, M346L, M346A, F352A and Y358A MIG6 peptides were diluted to final concentrations of 5, 8, 3.1, 3.5 and 2.7 μM in a buffer containing 10 mM Tris, 50 mM NaCl and 2 mM DTT, pH7.5. […] The fluorescence anisotropy at each titration step was monitored. […]

[3] = biological target: T2, EGFR kinase domain attached to lipid vesicles (activated EGFR kinase) (Homo sapiens, UniProt P00533); assay: Vesicle-based kinase assay: EGFR kinase domain attached to lipid vesicles; assay type: biochemical; conditions: for inhibition of activity of kinase domain attached to lipid vesicles: result in words
T2 construct: DNA encoding residues 672-998 of human EGFR was cloned into pFAST BAC HT; made in house; host or cells: Sf9 insect cells (baculovirus)
Excerpt: as §1

[4] = biological target: T3, wild-type EGFR kinase domain (Homo sapiens, UniProt P00533); assay: Fluorescence anisotropy binding titration, wild-type kinase domain; conditions: result in words
T3 construct: DNA encoding residues 672-998 of human EGFR was cloned into pFAST BAC HT; 6-His tag, linker and TEV cleavage site (N, cleaved yes); made in house; host or cells: Sf9 insect cells (baculovirus)
Excerpt: as §1
Fluorescein-labelled 30-residue wild-type, M346L, M346A, F352A and Y358A MIG6 peptides were diluted to final concentrations of 5, 8, 3.1, 3.5 and 2.7 μM in a buffer containing 10 mM Tris, 50 mM NaCl and 2 mM DTT, pH7.5. These peptides in the cuvette were then titrated with the wild-type or mutant forms of the EGFR kinase domain at 20 uC. For the competition assays, the labeled 30-mer wild-type peptide ([…]) and kinase domain ([…]) were mixed and titrated with unlabelled competitor peptides. The fluorescence anisotropy at each titration step was monitored. The I682Q and K799E mutant kinases used in the binding assays contain the N-terminal 63H is tag and linker fragment before the kinase domain, whereas this N-terminal fragment in the wild-type and V924R mutant kinases was removed by Tobacco Etch Virus protease treatment.

lung cancer = conditions: patients with lung cancer; cited from earlier work
[5] = biological target: T4, EGFR kinase domain I682Q mutant (Homo sapiens, UniProt P00533, I706Q); assay: Fluorescence anisotropy binding titration, I682Q mutant kinase domain; conditions: result in words
T4 construct: DNA encoding residues 672-998 of human EGFR was cloned into pFAST BAC HT; made in house; host or cells: Sf9 insect cells (baculovirus)
Excerpt: as §1, §2

[6] = biological target: T4, EGFR kinase domain I682Q mutant; assay: Kinase assay in solution, I682Q mutant kinase domain (basal activity); assay type: biochemical; conditions: result in words
Procedure: The EGFR kinase domain has very low activity in solution, but is activated on increasing its local concentration by tethering it to lipid vesicles, which promotes the formation of the asymmetric dimer. […] An EGFR kinase domain bearing an I682Q mutation is not stimulated by concentration at the membrane because it is unable to form the asymmetric dimer. […] Thus, MIG6(segment 1) is only able to inhibit the kinase domain in the context of asymmetric dimer formation.
(§3) Kinase assays were performed using methods known in the art and described herein. The substrate peptide was kept at 1 mM in all the experiments. The reported rates are the initial velocities normalized by the kinase concentrations. The wild-type kinase concentrations in the vesicle-based and solution-based assays were […] respectively.
(§4) A continuous enzyme-coupled kinase assay was performed to measure the kinase activity of the proteins as described in Barker et al., ((1995) Biochemistry, Vol. 34(54): 14843-51), with modifications, as described herein. The ATP concentration was kept to 0.5 mM.
(§5) The buffer used contained 10 mM MgCl2, 20 mM Tris, and pH 7.5. […] The substrate peptide was derived from the region spanning Y1173 in EGFR ([…]). All proteins used in this assay contained the N-terminal (His)6 tag unless otherwise noted.

[7] = biological target: T5, EGFR kinase domain L834R mutant (Homo sapiens, UniProt P00533, L858R); assay: Kinase assay in solution, L834R mutant kinase domain; assay type: biochemical; conditions: result in words
T5 construct: DNA encoding residues 672-998 of human EGFR was cloned into pFAST BAC HT; made in house; host or cells: Sf9 insect cells (baculovirus)
Procedure: To test the role of segment 2, we produced a longer peptide (residues 336-412, MIG6(segments 1-2)), and analyzed its effect on a variant of the EGFR kinase domain that contains a mutation (L834R) that renders it constitutively active in the absence of concentration on vesicles. MIG6(segments 1-2) inhibits this mutant kinase domain with an IC50 value of ˜200 nM (FIG. 25a). MIG6(segments 1-2) bearing a mutation within segment 1 (Y358A) inhibited L834R much less efficiently (IC50˜5 μM).
as §3, §4, §5

Q: Which results are given for `COc1cc2ncnc(Nc3ccc(F)c(Cl)c3)c2cc1OCCCN1CCOCC1` [gefitinib]?
A: apoptosis of gastric cancer cells (gastric cancer cells): increase apoptosis; growth of cancer cells [1]: halt the growth of cancer cells; growth of cancer cells (biliary tract cancer): halt the growth of cancer cells

Q: Which “binding to EGFR kinase domain bearing V924R mutation” value [2] does the source give for “30-residue fluorescein-labelled MIG6 peptide: fluorescein-labelled MIG6 peptide, residues 334-363, spanning the entire binding epitope of segment 1” here?
A: abolishes peptide binding

Q: With “F352A: 30-residue MIG6 segment 1 peptide with F352A mutation (SPKSLPSYLNGVMPPTQSAAPDPKYVSSKA; UniProt Q9UJM3 334-363, looked up, variant F352A)” as the compound, how does the “inhibition of activity of kinase domain attached to lipid vesicles” value [3] read?
A: do not inhibit kinase activity significantly

Q: What about the “binding to the wild-type EGFR kinase domain” value [4] of the same compound?
A: abrogates binding

Q: Which IC50 ([3]; vesicle-based kinase assay, read-out: IC50 for inhibiting the activated EGFR kinase (kinase domain attached to lipid vesicles)) does the source give for “KSLPSYLNGVMPPTQSFAPDPKYVSS (chains of the parent or of the whole protein) [40-mer peptide]” here?
A: ~10 µM

Q: With `C#Cc1cccc(Nc2ncnc3cc(OCCOC)c(OCCOC)cc23)c1` [Erlotinib] as the compound, how does the survival times (lung cancer) read?
A: increases survival times by several months

Q: With “M346A: 30-residue MIG6 segment 1 peptide with M346A mutation (SPKSLPSYLNGVAPPTQSFAPDPKYVSSKA; UniProt Q9UJM3 334-363, looked up, variant M346A)” as the compound, how does the “inhibition of activity of kinase domain attached to lipid vesicles” value [3] read?
A: do not inhibit kinase activity significantly

Q: And the “binding to the wild-type EGFR kinase domain” value [4]?
A: abrogates binding

Q: What does the source list for “Y358A: 30-residue MIG6 segment 1 peptide with Y358A mutation (SPKSLPSYLNGVMPPTQSFAPDPKAVSSKA; UniProt Q9UJM3 334-363, looked up, variant Y358A)”?
A: inhibition of activity of kinase domain attached to lipid vesicles [3]: do not inhibit kinase activity significantly; binding to the wild-type EGFR kinase domain [4]: abrogates binding

Q: Which “binding affinity for I682Q mutant kinase domain compared with wild-type” value [5] does the source give for “MIG6(segment 1): 25-residue epitope of MIG6 (residues 337-361) binding the EGFR kinase domain; tested as the 30-residue peptide” here?
A: same binding affinity

Q: And the “binding to the wild-type EGFR kinase domain” value [4]?
A: micromolar affinity

Q: What about the “inhibition of basal activity of I682Q mutant kinase domain in solution” value [6] of the same compound?
A: not inhibited

Q: And the “binding to EGFR kinase domain bearing V924R mutation” value [2]?
A: does not bind

Q: And the “inhibition of L834R mutant kinase domain” value [7]?
A: did not inhibit
